Laboratory results reported in US20050163775A1, “Combination therapy for B cell disorders” (Genentech, Inc., priority 2003, published 2005).
Bridges are numbered along the chain shown (N, C = ends). Where no end group is shown, it is not given here.

Biological target: T1, human BAFF (residues 82-285) (human, UniProt Q9Y275 82-285)
T1 construct: Coated on plates in the ELISAs; also used biotinylated or free in solution for phage sorting; also called BAFF82-285; BLyS82-285
Assay: phage display selection on BAFF

T1 sequence (Q9Y275 82-285): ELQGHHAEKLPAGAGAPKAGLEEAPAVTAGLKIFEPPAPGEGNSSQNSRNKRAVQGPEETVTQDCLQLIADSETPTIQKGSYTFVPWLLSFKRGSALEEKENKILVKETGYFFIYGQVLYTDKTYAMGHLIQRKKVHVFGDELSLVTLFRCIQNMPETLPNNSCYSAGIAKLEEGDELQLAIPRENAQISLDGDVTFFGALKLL

Binding result, binds:
ECFDLLVRTWVPCQAIL (disulfide 2-13 (inferred)) [SEQ ID NO 71], ECFDLLVRRWVPCSLVK [SEQ ID NO 87], ECFDLLVRAWVPCNELR [SEQ ID NO 84], ECFDVLVNAWVDCAVLR (disulfide 2-13 (inferred)) [SEQ ID NO 128], ECFDLLVRGWVPCEKLM [SEQ ID NO 73], ECFDLLVRQWVPCRALM [SEQ ID NO 88], ECFDLLVRAWVPCSYLS [SEQ ID NO 89], ECFDLLVREWVPCRILQ [SEQ ID NO 85], ECFDLLVRAWVRCDMLL [SEQ ID NO 72], ECFDPLVGRWVPCTLLH (disulfide 2-13 (inferred)) [SEQ ID NO 104], ECFDILVNRWVPCGALT (disulfide 2-13 (inferred)) [SEQ ID NO 133], ECFDLLVRSWVPCYSLK [SEQ ID NO 80], ECFDLLVRSWVPCGTLM [SEQ ID NO 69], ECFDTLVRAWVPCSHLT (disulfide 2-13 (inferred)) [SEQ ID NO 140], ECFDLLVRQWVSCELLS [SEQ ID NO 95], ECFDRLVGHWVPCAALI (disulfide 2-13 (inferred)) [SEQ ID NO 98], ECFDPLVRVWVDCSILD (disulfide 2-13 (inferred)) [SEQ ID NO 100], ECFDPLVRDWVPCDLIH (disulfide 2-13 (inferred)) [SEQ ID NO 138], ECFDPLVRHWVPCRALD [SEQ ID NO 130], ECFDLLVRVWVPCSRLY [SEQ ID NO 82], ECFDLLVRRWVPCEMLG [SEQ ID NO 66], ECFDPLVNAWVPCAVLH (disulfide 2-13 (inferred)) [SEQ ID NO 135], ECFDLLVRKWVPCQVLG [SEQ ID NO 67], ECFDPLVGHWVPCSVLT (disulfide 2-13 (inferred)) [SEQ ID NO 106], ECFDPLVLRWVPCSALH (disulfide 2-13 (inferred)) [SEQ ID NO 136], ECFDVLVRAWVPCRALT (disulfide 2-13 (inferred)) [SEQ ID NO 132], ECFDLLVRDWVPCSLLF [SEQ ID NO 90], ECFDDLVRHWVPCDLLT [SEQ ID NO 131], ECFDALVHRWVPCDLLR [SEQ ID NO 137], ECFDDLVRNWVPCALLN [SEQ ID NO 134], ECFDRLVNLWVDCALLN (disulfide 2-13 (inferred)) [SEQ ID NO 108], ECFDLLVRRWVPCSWLL [SEQ ID NO 86], ECFDPLVRIWVACDRLA [SEQ ID NO 103], ECFDSLVNAWVPCSAIR (disulfide 2-13 (inferred)) [SEQ ID NO 101], ECFDLLVNSWVPCSVIA (disulfide 2-13 (inferred)) [SEQ ID NO 139], ECFDLLVRRWVPCELLV [SEQ ID NO 79], ECFDLLVRAWVPCHLID [SEQ ID NO 105], ECFDLLVRRWVPCGLLR [SEQ ID NO 75], ECFDGLVNAWVDCGLLR [SEQ ID NO 129], ECFDILVDRWVPCAILH (disulfide 2-13 (inferred)) [SEQ ID NO 97], ECFDLLVRGWVPCSVLQ [SEQ ID NO 93], ECFDLLVRAWVPCSVLK [SEQ ID NO 94], ECFDSLVNAWVPCHVLT (disulfide 2-13 (inferred)) [SEQ ID NO 142], ECFDLLVRSWVPCHMLR [SEQ ID NO 70], ECFDLLVRGWVDCSLLL [SEQ ID NO 96], ECFDLLVRQWVPCERIR [SEQ ID NO 65], ECFDLLVRQWVPCGALG [SEQ ID NO 83], ECFDPLVARWVPCHLIN (disulfide 2-13 (inferred)) [SEQ ID NO 99], ECFDLLVRSWVPCTLLS [SEQ ID NO 91], ECFDLLVRAWVPCWLRL [SEQ ID NO 74], ECFDLLVRRWVDCAFLH [SEQ ID NO 76], ECFDLLVRQWVSCQVFA (disulfide 2-13 (inferred)) [SEQ ID NO 81], ECFDSLVRIWVPCGLID [SEQ ID NO 141], ECFDLLVRTWVECSLLN [SEQ ID NO 68], ECFDLLVNRWVDCRLLI [SEQ ID NO 102], ECFDLLVRKWVPCSTFH (disulfide 2-13 (inferred)) [SEQ ID NO 92], ECFDPLVNRWVDCVALH (disulfide 2-13 (inferred)) [SEQ ID NO 107], ECFDLLVRSWVPCSSLG [SEQ ID NO 77]
